Assay [1] concerns the target T1, Recombinant human IL-2 (human, UniProt P60568 21-153).
T1 construct: also called hIL-2; recombinant IL-2 (Acro Biosystems, IL2-H4113)
As to the kind of experiment: Octet BLI, antibody immobilised on amine reactive sensors, IL-2 in solution. The procedure:
(§1) Antibody A, B or C were immobilized on amine reactive (2nd Generation) sensors (ForteBio, 18-5092). Association (600s) and dissociation (900s) of a dilution series of recombinant IL-2 (Acro Biosystems, IL2-H4113) were measured on the antibody-coated biosensors on an Octet-System (Octet RED, ForteBio). K_D values were obtained by fitting the kinetics data with the ForteBio Data Analysis Software (8.2).
A general note: Biolayer interferometry detects binding as a change in optical thickness at a sensor tip.

In assay [2] the target is T1, Recombinant human IL-2. Description: ELISA, recombinant human IL-2 coated, antibody titrated, anti-human IgG-Peroxidase. The procedure: Recombinant human IL-2 was coated on Maxisorp ELISA plates (Invitrogen, 44-2404-21) at 5 µg/ml, 4° C. over night. After 2 hours blocking, antibodies A, B and C were incubated in a serial dilution starting from 10 µg/ml in assay buffer. The antibodies were detected with anti-human IgG-Peroxidase (Sigma, A0170). After addition and blockade of the […] substrate, absorption was read ($A450$-$A570$ at plate reader, Spectramax iD3). $EC50$ values were obtained by plotting Absorbance vs. log(Concentration).

Assay [3] deals with T1, Recombinant human IL-2. Description: Octet BLI, antibody immobilised on amine reactive sensors, IL-2 in solution; Octet, free antibody B against recombinant hIL-2: weak binding, KD 269.8 nM. The procedure:
as §1

T1 sequence (P60568 21-153 limits assumed): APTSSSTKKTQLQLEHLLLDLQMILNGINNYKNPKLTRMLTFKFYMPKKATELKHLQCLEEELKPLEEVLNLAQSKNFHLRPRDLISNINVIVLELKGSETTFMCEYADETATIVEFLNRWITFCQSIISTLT

B1: Antibody A (antibody, human IgG1, kappa, N297A, V domains shown)
VH: EVQLVQSGAEVKKPGESLKISCKGSGYAFTNYLIEWVRQMPGKGLEWMGVINPGSGGTNYNEKFKGQVTISADKSISTAYLQWSSLKASDTAMYYCARWRGEGYYAYFDVWGQGTTVTVSS
VL: AIRLTQSPSSFSASTGDRVTITCKASQSVDYQGDSYMNWYQQKPGKAPKLLIYAASNLESGVPSRFSGSGSGTDFTLTISSLQSEDFATYYCQQSNEDPYTFGGGTKVEIKR
notes: Humanized full-length human IgG1 kappa; The printed heavy chain carries the N297A Fc
One may read the Kd as the constant that tells how readily two partners part at equilibrium. What is called EC50 is the concentration needed to bring the measured effect to its halfway point. For the molecule B1, the Kd in the assay with Recombinant human IL-2 [1] is 2.1 nM. Moreover, in the assay with Recombinant human IL-2 [2], the concentration giving a half-maximal response (EC50) came to 0.37 nM.

B2: Antibody B (antibody, human IgG1, kappa, V domains shown)
VH: QVQLVESGGGVVQPGRSLRLSCAASGYTFSSYLIEWVRQAPGKGLEWVAVINPGSGGTNYADSVKGRFTISADKSKNTAYLQMNSLRAEDTAVYYCARWRGDGYYAYFDVWGQGTTVTVSS
VL: EIVLTQSPATLSVSPGERATLSCRASQSVSYDGDSYMNWYQQKPGQAPRLLIYAASNLASGIPARFSGSGSGTEFTLTISSLQSEDAAVYYCQQSNEDPYTFGGGTKVEIKR
notes: Full-length human IgG1 kappa
Regarding B2, in the assay with Recombinant human IL-2 [3], the dissociation constant Kd was found to be 270 nM.

B3: Antibody C (antibody, human IgG1, kappa, V domains shown)
VH: EVQLVQSGAEVKKPGESLKISCKGSGYSFTNFYIHWVRQAPGQRLEWMGSIYPNYGDTAYNQKFKDRFVFSLDTSVSTAYLQISSLKAEDTAVYYCARGYSYAMDYWGQGTTVTVSS
VL: DIQMTQSPSSVSASVGDRVTITCSASQGISGDLNWYQQKPGKAPKLLIYHTSSLHSGVPSRFSGSGSGTDFTLTISSLQPEDFATYYCQYYSKDLLTFGGGTKLEIKR
notes: Control antibody, full-length human IgG1 kappa
For the molecule B3, the Kd with Recombinant human IL-2 [1] was above 1000 nM.

(Values after patent US11773160 (ANAVEON, dated 2023).)
